Target: T1, Vitronectin receptor, αVβ3 integrin, localized on the HUVEC surface (human, UniProt P06756 31-1048; P05106 27-788)
T1 construct: whole, on cells; Present on bFGF-stimulated HUVEC in the cell adhesion assay; also called integrin αVβ3
Experiment: HUVEC adhesion assay on Saxatilin- and Vitronectin-coated plates

T1 sequence (P06756 31-1048, chain 1 of 2): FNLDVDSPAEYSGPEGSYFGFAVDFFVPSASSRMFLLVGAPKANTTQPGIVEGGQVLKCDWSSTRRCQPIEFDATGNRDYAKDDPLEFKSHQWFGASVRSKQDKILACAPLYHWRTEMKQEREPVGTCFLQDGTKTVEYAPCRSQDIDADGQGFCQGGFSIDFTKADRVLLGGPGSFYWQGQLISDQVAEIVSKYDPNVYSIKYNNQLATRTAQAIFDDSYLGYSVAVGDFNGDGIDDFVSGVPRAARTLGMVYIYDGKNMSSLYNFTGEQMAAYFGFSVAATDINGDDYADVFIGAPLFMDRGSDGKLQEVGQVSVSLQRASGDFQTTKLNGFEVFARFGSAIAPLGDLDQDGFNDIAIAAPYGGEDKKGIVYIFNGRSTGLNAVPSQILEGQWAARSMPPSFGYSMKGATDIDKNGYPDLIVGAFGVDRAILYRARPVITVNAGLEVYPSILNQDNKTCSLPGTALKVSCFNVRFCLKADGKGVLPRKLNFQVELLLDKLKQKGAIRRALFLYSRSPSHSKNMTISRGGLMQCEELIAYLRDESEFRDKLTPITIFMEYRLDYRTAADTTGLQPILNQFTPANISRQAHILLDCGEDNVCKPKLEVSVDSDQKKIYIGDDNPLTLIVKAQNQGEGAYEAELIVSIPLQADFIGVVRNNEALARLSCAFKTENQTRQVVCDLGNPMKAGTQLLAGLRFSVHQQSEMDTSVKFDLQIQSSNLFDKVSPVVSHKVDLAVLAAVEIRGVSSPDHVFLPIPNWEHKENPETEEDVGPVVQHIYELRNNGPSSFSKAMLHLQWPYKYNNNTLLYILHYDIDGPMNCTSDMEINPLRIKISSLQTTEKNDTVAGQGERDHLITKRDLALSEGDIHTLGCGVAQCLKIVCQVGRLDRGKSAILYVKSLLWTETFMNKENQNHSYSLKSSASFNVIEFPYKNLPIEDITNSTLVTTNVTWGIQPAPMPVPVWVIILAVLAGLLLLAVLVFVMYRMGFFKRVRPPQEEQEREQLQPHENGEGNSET
T1 sequence (P05106 27-788, chain 2 of 2): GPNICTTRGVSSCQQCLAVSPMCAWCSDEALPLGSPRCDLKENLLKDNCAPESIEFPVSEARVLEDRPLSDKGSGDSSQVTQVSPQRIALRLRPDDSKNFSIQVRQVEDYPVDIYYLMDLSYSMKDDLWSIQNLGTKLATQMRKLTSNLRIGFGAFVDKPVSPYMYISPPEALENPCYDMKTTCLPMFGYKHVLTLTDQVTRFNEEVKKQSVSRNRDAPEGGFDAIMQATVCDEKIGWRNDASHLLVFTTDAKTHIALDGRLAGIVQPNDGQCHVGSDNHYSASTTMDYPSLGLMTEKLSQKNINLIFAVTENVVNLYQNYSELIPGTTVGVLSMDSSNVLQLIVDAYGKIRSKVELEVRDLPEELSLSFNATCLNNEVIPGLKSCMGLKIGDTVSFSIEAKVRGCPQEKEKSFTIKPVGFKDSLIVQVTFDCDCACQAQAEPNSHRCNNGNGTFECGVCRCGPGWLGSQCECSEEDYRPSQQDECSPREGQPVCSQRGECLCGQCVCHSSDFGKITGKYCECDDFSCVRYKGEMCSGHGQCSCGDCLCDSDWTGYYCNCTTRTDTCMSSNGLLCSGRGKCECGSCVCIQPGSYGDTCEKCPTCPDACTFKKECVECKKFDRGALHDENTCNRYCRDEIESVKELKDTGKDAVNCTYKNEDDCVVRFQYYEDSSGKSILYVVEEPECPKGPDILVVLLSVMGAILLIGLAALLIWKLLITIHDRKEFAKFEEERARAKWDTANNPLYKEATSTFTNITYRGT

B1: recombinant Saxatilin (ligand)
chain: EAGEECDCGAPANPCCDAATCKLRPGAQCAEGLCCDQCRFMKEGTICRMARGDDMDDYCNGISAGCPRNPFHA
B1: binds.

Reference: patent publication US20050032189A1 (published 2005)
